Test results taken from article PMC10681739, “High-throughput data and modeling reveal insights into the mechanisms of cooperative DNA-binding by transcription factor proteins”.

B1: Table S3 C row 192 (dsDNA)
DNA 1: CCGCGCAAGCCCCGACATCCGGTTGGCCGGCGTGGG
DNA 2: CCCACGCCGGCCAACCGGATGTCGGGGCTTGCGCGG
B2: Table S3 C row 174 (dsDNA)
DNA 1: TTGCTCTGCGCATGGCGGAAAGGGTGCGCCGCCTGT
DNA 2: ACAGGCGGCGCACCCTTTCCGCCATGCGCAGAGCAA
B3: Table S3 C row 93 (dsDNA)
DNA 1: TCCTTCCCTGGCAACAGGAAGTGAAAATGCCAGGCC
DNA 2: GGCCTGGCATTTTCACTTCCTGTTGCCAGGGAAGGA
B4: Table S3 C row 178 (dsDNA)
DNA 1: TGGCTGCTACGTCGTCTTCCTGGGCGAAAGTGCCTG
DNA 2: CAGGCACTTTCGCCCAGGAAGACGACGTAGCAGCCA
B5: Table S3 C row 160 (dsDNA)
DNA 1: ACCCCGTAGCCGGCGCTTCCTGCCGAGGCTGGGGTC
DNA 2: GACCCCAGCCTCGGCAGGAAGCGCCGGCTACGGGGT
B6: Table S3 C row 170 (dsDNA)
DNA 1: ACCGGCGCGCACACGCTTCCGTGCTACGAGGCACTT
DNA 2: AAGTGCCTCGTAGCACGGAAGCGTGTGCGCGCCGGT
B7: Table S3 C row 122 (dsDNA)
DNA 1: ACCCTGAAGCCTCGCCGGAACTCGCGTCTGGGGCCA
DNA 2: TGGCCCCAGACGCGAGTTCCGGCGAGGCTTCAGGGT
B8: Table S3 C row 127 (dsDNA)
DNA 1: CTCCGAACTTAGGACAGGAAGAAACAGGCACATTTC
DNA 2: GAAATGTGCCTGTTTCTTCCTGTCCTAAGTTCGGAG
B9: Table S3 C row 89 (dsDNA)
DNA 1: AGCACAGCTTCGGGCCGGAATCACGATCCACCAGAC
DNA 2: GTCTGGTGGATCGTGATTCCGGCCCGAAGCTGTGCT
B10: Table S3 C row 193 (dsDNA)
DNA 1: CCGACCCCGCTGCCCCGGAAGGTGAGGCAAGCCTGG
DNA 2: CCAGGCTTGCCTCACCTTCCGGGGCAGCGGGGTCGG
B11: Table S3 C row 144 (dsDNA)
DNA 1: GTTTAAGCTCAGCGCCTTCCTGGTTCTAGCGCCAGG
DNA 2: CCTGGCGCTAGAACCAGGAAGGCGCTGAGCTTAAAC
B12: Table S3 C row 138 (dsDNA)
DNA 1: GGGGCCTGTTGTAGTTTTCCTGCATTCAAAGTACCC
DNA 2: GGGTACTTTGAATGCAGGAAAACTACAACAGGCCCC
B13: Table S3 C row 57 (dsDNA)
DNA 1: TTCATTGTTAGGGAACATCCGGGCCTGTCCCCTCCC
DNA 2: GGGAGGGGACAGGCCCGGATGTTCCCTAACAATGAA
B14: Table S3 C row 150 (dsDNA)
DNA 1: TCTGAACTCTGACAACTTCCTGTCGCTCTGAGTGTG
DNA 2: CACACTCAGAGCGACAGGAAGTTGTCAGAGTTCAGA
B15: Table S3 C row 23 (dsDNA)
DNA 1: CCCAGCCGGCCTGGACATCCGCCCCGCGCGCGGCGT
DNA 2: ACGCCGCGCGCGGGGCGGATGTCCAGGCCGGCTGGG
B16: Table S3 C row 22 (dsDNA)
DNA 1: CCGGATTGCCTTCACAGGAAGGGAAAGTCACTCCGG
DNA 2: CCGGAGTGACTTTCCCTTCCTGTGAAGGCAATCCGG
B17: Table S3 C row 87 (dsDNA)
DNA 1: AGAGGAGGGGCCCGGCGGAAACTGCCGAGGTCTCCC
DNA 2: GGGAGACCTCGGCAGTTTCCGCCGGGCCCCTCCTCT
B18: Table S3 C row 82 (dsDNA)
DNA 1: TGATGGGGATCGGTCCGGATGTACTTCAACATCTTT
DNA 2: AAAGATGTTGAAGTACATCCGGACCGATCCCCATCA
B19: Table S3 C row 107 (dsDNA)
DNA 1: CTCGAGCCCGCTCGGCTTCCGTAGCCCCGCCCCATC
DNA 2: GATGGGGCGGGGCTACGGAAGCCGAGCGGGCTCGAG
B20: Table S3 C row 153 (dsDNA)
DNA 1: CCGCCTTCAGGGCGGCGGAAGTCGCTGGCTGCTCTT
DNA 2: AAGAGCAGCCAGCGACTTCCGCCGCCCTGAAGGCGG
B21: Table S3 C row 41 (dsDNA)
DNA 1: CAGACTCGGCGTCGGCTTCCGGCGGCGTCAGAGACG
DNA 2: CGTCTCTGACGCCGCCGGAAGCCGACGCCGAGTCTG
B22: Table S3 C row 173 (dsDNA)
DNA 1: CGCTATCGGGGCAGCAGGAAGTCGCCATCTTGAATC
DNA 2: GATTCAAGATGGCGACTTCCTGCTGCCCCGATAGCG
B23: Table S3 C row 49 (dsDNA)
DNA 1: TGGGACTGACTGAGTCTTCCGTGTGTCGCCGCCGTT
DNA 2: AACGGCGGCGACACACGGAAGACTCAGTCAGTCCCA
B24: Table S3 C row 154 (dsDNA)
DNA 1: CCGGCTCATCTGGTATTTCCTGAGCACCTGCGACGT
DNA 2: ACGTCGCAGGTGCTCAGGAAATACCAGATGAGCCGG
B25: Table S3 C row 179 (dsDNA)
DNA 1: CACAAGCGAAACATTCGGAAGCAATTTACTTGCAGC
DNA 2: GCTGCAAGTAAATTGCTTCCGAATGTTTCGCTTGTG
B26: Table S3 C row 164 (dsDNA)
DNA 1: GGGCTGGGTGGAGACAGGAAGCTTCAGAGCCACTCC
DNA 2: GGAGTGGCTCTGAAGCTTCCTGTCTCCACCCAGCCC
B27: Table S3 C row 108 (dsDNA)
DNA 1: TCTGCCCTCCCAGCACTTCCGGGCTGGCAGAAGAGC
DNA 2: GCTCTTCTGCCAGCCCGGAAGTGCTGGGAGGGCAGA
B28: Table S3 C row 36 (dsDNA)
DNA 1: GGACGGCCTCTGAAGCTTCCGCGCCGACTTCTCCGA
DNA 2: TCGGAGAAGTCGGCGCGGAAGCTTCAGAGGCCGTCC
B29: Table S3 C row 75 (dsDNA)
DNA 1: GGAGCTCACCTTCCAGTTCCGGGAGGCAGGCCGGCC
DNA 2: GGCCGGCCTGCCTCCCGGAACTGGAAGGTGAGCTCC
B30: Table S3 C row 9 (dsDNA)
DNA 1: CGTGACGCAGGGAAAGTTCCGGCTTCGGCCTCCGCC
DNA 2: GGCGGAGGCCGAAGCCGGAACTTTCCCTGCGTCACG
B31: Table S3 C row 54 (dsDNA)
DNA 1: CAGACCCCGTGGGGCAGGAAGCTGCTGGGGTAGGCC
DNA 2: GGCCTACCCCAGCAGCTTCCTGCCCCACGGGGTCTG
B32: Table S3 C row 25 (dsDNA)
DNA 1: CTCCAGGGGTGTCACCGGAAAAAGCCGTTTCTGGAG
DNA 2: CTCCAGAAACGGCTTTTTCCGGTGACACCCCTGGAG
B33: Table S3 C row 200 (dsDNA)
DNA 1: GCCCCTCACAGCCTGCTTCCGGGAGCCGGGCAGGCC
DNA 2: GGCCTGCCCGGCTCCCGGAAGCAGGCTGTGAGGGGC
B34: Table S3 C row 72 (dsDNA)
DNA 1: CCCCGTCCACGGCCCCGGAAGCTGACGTCGCCGAAG
DNA 2: CTTCGGCGACGTCAGCTTCCGGGGCCGTGGACGGGG
B35: Table S3 C row 161 (dsDNA)
DNA 1: CTATCCCAGGCCTCGCTTCCGGTGACATCATGTCTC
DNA 2: GAGACATGATGTCACCGGAAGCGAGGCCTGGGATAG
B36: Table S3 C row 69 (dsDNA)
DNA 1: TCCCCGAGCGTGCAGCTTCCGGTGAGGGCAGCCCCA
DNA 2: TGGGGCTGCCCTCACCGGAAGCTGCACGCTCGGGGA
B37: Table S3 C row 50 (dsDNA)
DNA 1: GCGTGACAGAATGTGCTTCCGCTTGCGCCTCTGAGC
DNA 2: GCTCAGAGGCGCAAGCGGAAGCACATTCTGTCACGC
B38: Table S3 C row 110 (dsDNA)
DNA 1: AGCTTATCATCGTCACGGAAGCCCCGCCAGGTGGCG
DNA 2: CGCCACCTGGCGGGGCTTCCGTGACGATGATAAGCT
B39: Table S3 C row 166 (dsDNA)
DNA 1: ACCCCGGGTCGGAGTGTTCCGGCCCGGCCAGCCCCG
DNA 2: CGGGGCTGGCCGGGCCGGAACACTCCGACCCGGGGT
B40: Table S3 C row 81 (dsDNA)
DNA 1: GGCCCATTGTCCGCGCTTCCGTTCAGGCTCCGCCTC
DNA 2: GAGGCGGAGCCTGAACGGAAGCGCGGACAATGGGCC
B41: Table S3 C row 176 (dsDNA)
DNA 1: GCCGCCATGGGGCGCTATCCGGCCCCAGCCGGGACC
DNA 2: GGTCCCGGCTGGGGCCGGATAGCGCCCCATGGCGGC
B42: Table S3 C row 98 (dsDNA)
DNA 1: TCGGCGGGGCTGTACCGGAAGTTGCCTCTACTTCTG
DNA 2: CAGAAGTAGAGGCAACTTCCGGTACAGCCCCGCCGA
B43: Table S3 C row 53 (dsDNA)
DNA 1: GCTGGGACGCCAGACCTTCCGGGTTGCCCGGCCCCG
DNA 2: CGGGGCCGGGCAACCCGGAAGGTCTGGCGTCCCAGC
B44: Table S3 C row 52 (dsDNA)
DNA 1: TTTCGCCGACCCCGCCGGAAGACCAGGCCGGCGCGG
DNA 2: CCGCGCCGGCCTGGTCTTCCGGCGGGGTCGGCGAAA
B45: Table S3 C row 77 (dsDNA)
DNA 1: TCGGGCCGGGAGCCGGTTCCGGCTGAGTCGGCAGGG
DNA 2: CCCTGCCGACTCAGCCGGAACCGGCTCCCGGCCCGA

Target: RUNX1 (Homo sapiens, UniProt Q01196)
Sequence (Q01196 whole entry): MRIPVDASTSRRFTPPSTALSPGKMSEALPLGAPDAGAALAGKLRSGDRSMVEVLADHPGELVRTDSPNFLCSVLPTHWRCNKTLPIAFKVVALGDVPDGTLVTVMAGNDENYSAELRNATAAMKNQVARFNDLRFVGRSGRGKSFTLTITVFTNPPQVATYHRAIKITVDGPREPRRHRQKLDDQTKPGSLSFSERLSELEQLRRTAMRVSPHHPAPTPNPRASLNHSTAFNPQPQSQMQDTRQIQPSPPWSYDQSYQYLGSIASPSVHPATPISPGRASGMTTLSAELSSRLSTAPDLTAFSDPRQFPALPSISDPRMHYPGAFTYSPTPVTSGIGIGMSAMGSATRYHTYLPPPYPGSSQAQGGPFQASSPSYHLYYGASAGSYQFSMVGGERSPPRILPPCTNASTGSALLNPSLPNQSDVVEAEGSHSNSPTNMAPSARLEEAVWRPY
Experiment: gcPBM; 2 nM RUNX1
Details: tags: N-terminal GST (pDEST15), kept (PMC6008103); label: surface-attached array probe

Row | Binder | binding signal
1 | B1 | 751 PBM fluorescence, median of replicate spots
2 | B2 | 735 PBM fluorescence, median of replicate spots
3 | B3 | 766 PBM fluorescence, median of replicate spots
4 | B4 | 726 PBM fluorescence, median of replicate spots
5 | B5 | 766 PBM fluorescence, median of replicate spots
6 | B6 | 726 PBM fluorescence, median of replicate spots
7 | B7 | 728 PBM fluorescence, median of replicate spots
8 | B8 | 751 PBM fluorescence, median of replicate spots
9 | B9 | 755 PBM fluorescence, median of replicate spots
10 | B10 | 761 PBM fluorescence, median of replicate spots
11 | B11 | 729 PBM fluorescence, median of replicate spots
12 | B12 | 732 PBM fluorescence, median of replicate spots
13 | B13 | 752 PBM fluorescence, median of replicate spots
14 | B14 | 757 PBM fluorescence, median of replicate spots
15 | B15 | 759 PBM fluorescence, median of replicate spots
16 | B16 | 737 PBM fluorescence, median of replicate spots
17 | B17 | 733 PBM fluorescence, median of replicate spots
18 | B18 | 747 PBM fluorescence, median of replicate spots
19 | B19 | 743 PBM fluorescence, median of replicate spots
20 | B20 | 759 PBM fluorescence, median of replicate spots
21 | B21 | 762 PBM fluorescence, median of replicate spots
22 | B22 | 725 PBM fluorescence, median of replicate spots
23 | B23 | 756 PBM fluorescence, median of replicate spots

Row | Binder | binding signal
24 | B24 | 757 PBM fluorescence, median of replicate spots
25 | B25 | 751 PBM fluorescence, median of replicate spots
26 | B26 | 735 PBM fluorescence, median of replicate spots
27 | B27 | 763 PBM fluorescence, median of replicate spots
28 | B28 | 741 PBM fluorescence, median of replicate spots
29 | B29 | 740 PBM fluorescence, median of replicate spots
30 | B30 | 736 PBM fluorescence, median of replicate spots
31 | B31 | 758 PBM fluorescence, median of replicate spots
32 | B32 | 765 PBM fluorescence, median of replicate spots
33 | B33 | 726 PBM fluorescence, median of replicate spots
34 | B34 | 733 PBM fluorescence, median of replicate spots
35 | B35 | 749 PBM fluorescence, median of replicate spots
36 | B36 | 735 PBM fluorescence, median of replicate spots
37 | B37 | 755 PBM fluorescence, median of replicate spots
38 | B38 | 759 PBM fluorescence, median of replicate spots
39 | B39 | 724 PBM fluorescence, median of replicate spots
40 | B40 | 725 PBM fluorescence, median of replicate spots
41 | B41 | 729 PBM fluorescence, median of replicate spots
42 | B42 | 759 PBM fluorescence, median of replicate spots
43 | B43 | 748 PBM fluorescence, median of replicate spots
44 | B44 | 732 PBM fluorescence, median of replicate spots
45 | B45 | 765 PBM fluorescence, median of replicate spots
